Laboratory results from US12576138B2, “Compounds and methods for the immobilization of myostatin-inhibitors on the extracellular matrix by transglutaminase” (JULIUS-MAXIMILIANS-UNIVERSITÄT WÜRZBURG, priority 2018, dated 2026).

Key:
fibronectin = target: T1, fibronectin (Mus musculus, UniProt P11276); assay: FXIIIa-mediated immobilization of MI-D chain on decellularized cell-derived ECM; assay type: biochemical
T1 construct: The ECM was produced by NIH3T3 fibroblasts and on day 6 decellularized; endogenous in cells; host or cells: NIH3T3 fibroblasts (decellularized ECM)
Source text: As proof of concept, the MI with TG tag (“MI-D chain”) was immobilized onto cell derived, isolated extracellular matrix (ECM). The ECM was produced by NIH3T3 fibroblasts and on day 6 decellularized and washed to remove cell debris and adsorbed proteins.
(§1) MI-D chains were immobilized on ECM with high efficacy (FIG. 4A) and the co-localization with fibronectin confirmed using confocal laser scanning microscopy (FIG. 4B). Bioactivity of immobilized MI was confirmed by capturing myostatin using ELISA and consequently the restoration of mouse myoblast cells to differentiate in presence of myostatin (FIG. 4C, D).
(§2) FIG. 4: Immobilization of the MI-D chain on decellularized ECM. (A) Coupling efficacy in presence and absence of TG. (B) Confocal Laser Scanning Microscopy images of MI labeled with Atto594-maleimide on ECM in presence (panels A) and absence (panels B) of FXIIIa. […] (C) Amount of free myostatin after exposure to ECM with immobilized MI under different conditions measured by ELISA. (D) Bioactivity of MI immobilized on ECM determined by differentiation of myoblasts in presence of myostatin-containing medium and MI bound on ECM in presence or absence of TG.

myostatin [1] = target: T2, myostatin (Homo sapiens, UniProt O14793); assay: Capture of myostatin by ECM-immobilized MI, measured by ELISA; assay type: binding
T2 sequence (O14793 267-375): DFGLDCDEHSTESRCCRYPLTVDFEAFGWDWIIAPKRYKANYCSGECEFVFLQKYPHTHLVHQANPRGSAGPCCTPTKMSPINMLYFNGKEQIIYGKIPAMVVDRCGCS
Source text: as §1, §2

mouse myoblast cells = assay: Differentiation of myoblasts in presence of myostatin and MI bound on ECM; assay type: cell-based; settings: MI immobilized on ECM
Source text: as §1, §2

[2] = target: glutamine substrate derived from α-2 plasmin inhibitor (Homo sapiens, UniProt P08697); assay: Transglutaminase coupling of the isolated IGF-I D chain to a glutamine substrate; assay type: biochemical
Experimental: Starting off by examination of the specificity and efficacy of the IGF-I D chain, the isolated sequence (PLKPAKSA) was coupled to a glutamine substrate derived from α-2 plasmin inhibitor, achieving >90% conversion within less than 10 minutes.

myostatin [3] = target: T2, myostatin; assay: Bioactivity of released MI: myoblast proliferation in presence of myostatin; assay type: cell-based; settings: after release from ECM triggered by MMPs
Source text: If a flaring inflammation in the wounded tissue occurs, accompanied by invasion of macrophages and release of MMPs, the inter-positioned PCL is cleaved, releasing the MI and instantly inhibiting the flaring inflammation and preventing apoptosis of surrounding cartilage and muscle cells.
FIG. 5: (A) Release kinetics of MI modified with a PCL—responding to elevated MMP levels—and the D chain for immobilization on ECM (“MI1”) in comparison to MI modified with the D chain at the C-terminus for direct immobilization on ECM (“MI2”). The MI was labelled with a fluorescent dye before immobilization on the ECM and the release of MI exposed to MMP-1, -8, -9 and -13 for different periods of time was analyzed by HPLC with fluorescence detection. (B) Bioactivity of released MI determined by myoblast proliferation in presence of myostatin and MI after release from ECM triggered by MMPs.

T1 sequence (P11276 33-2477): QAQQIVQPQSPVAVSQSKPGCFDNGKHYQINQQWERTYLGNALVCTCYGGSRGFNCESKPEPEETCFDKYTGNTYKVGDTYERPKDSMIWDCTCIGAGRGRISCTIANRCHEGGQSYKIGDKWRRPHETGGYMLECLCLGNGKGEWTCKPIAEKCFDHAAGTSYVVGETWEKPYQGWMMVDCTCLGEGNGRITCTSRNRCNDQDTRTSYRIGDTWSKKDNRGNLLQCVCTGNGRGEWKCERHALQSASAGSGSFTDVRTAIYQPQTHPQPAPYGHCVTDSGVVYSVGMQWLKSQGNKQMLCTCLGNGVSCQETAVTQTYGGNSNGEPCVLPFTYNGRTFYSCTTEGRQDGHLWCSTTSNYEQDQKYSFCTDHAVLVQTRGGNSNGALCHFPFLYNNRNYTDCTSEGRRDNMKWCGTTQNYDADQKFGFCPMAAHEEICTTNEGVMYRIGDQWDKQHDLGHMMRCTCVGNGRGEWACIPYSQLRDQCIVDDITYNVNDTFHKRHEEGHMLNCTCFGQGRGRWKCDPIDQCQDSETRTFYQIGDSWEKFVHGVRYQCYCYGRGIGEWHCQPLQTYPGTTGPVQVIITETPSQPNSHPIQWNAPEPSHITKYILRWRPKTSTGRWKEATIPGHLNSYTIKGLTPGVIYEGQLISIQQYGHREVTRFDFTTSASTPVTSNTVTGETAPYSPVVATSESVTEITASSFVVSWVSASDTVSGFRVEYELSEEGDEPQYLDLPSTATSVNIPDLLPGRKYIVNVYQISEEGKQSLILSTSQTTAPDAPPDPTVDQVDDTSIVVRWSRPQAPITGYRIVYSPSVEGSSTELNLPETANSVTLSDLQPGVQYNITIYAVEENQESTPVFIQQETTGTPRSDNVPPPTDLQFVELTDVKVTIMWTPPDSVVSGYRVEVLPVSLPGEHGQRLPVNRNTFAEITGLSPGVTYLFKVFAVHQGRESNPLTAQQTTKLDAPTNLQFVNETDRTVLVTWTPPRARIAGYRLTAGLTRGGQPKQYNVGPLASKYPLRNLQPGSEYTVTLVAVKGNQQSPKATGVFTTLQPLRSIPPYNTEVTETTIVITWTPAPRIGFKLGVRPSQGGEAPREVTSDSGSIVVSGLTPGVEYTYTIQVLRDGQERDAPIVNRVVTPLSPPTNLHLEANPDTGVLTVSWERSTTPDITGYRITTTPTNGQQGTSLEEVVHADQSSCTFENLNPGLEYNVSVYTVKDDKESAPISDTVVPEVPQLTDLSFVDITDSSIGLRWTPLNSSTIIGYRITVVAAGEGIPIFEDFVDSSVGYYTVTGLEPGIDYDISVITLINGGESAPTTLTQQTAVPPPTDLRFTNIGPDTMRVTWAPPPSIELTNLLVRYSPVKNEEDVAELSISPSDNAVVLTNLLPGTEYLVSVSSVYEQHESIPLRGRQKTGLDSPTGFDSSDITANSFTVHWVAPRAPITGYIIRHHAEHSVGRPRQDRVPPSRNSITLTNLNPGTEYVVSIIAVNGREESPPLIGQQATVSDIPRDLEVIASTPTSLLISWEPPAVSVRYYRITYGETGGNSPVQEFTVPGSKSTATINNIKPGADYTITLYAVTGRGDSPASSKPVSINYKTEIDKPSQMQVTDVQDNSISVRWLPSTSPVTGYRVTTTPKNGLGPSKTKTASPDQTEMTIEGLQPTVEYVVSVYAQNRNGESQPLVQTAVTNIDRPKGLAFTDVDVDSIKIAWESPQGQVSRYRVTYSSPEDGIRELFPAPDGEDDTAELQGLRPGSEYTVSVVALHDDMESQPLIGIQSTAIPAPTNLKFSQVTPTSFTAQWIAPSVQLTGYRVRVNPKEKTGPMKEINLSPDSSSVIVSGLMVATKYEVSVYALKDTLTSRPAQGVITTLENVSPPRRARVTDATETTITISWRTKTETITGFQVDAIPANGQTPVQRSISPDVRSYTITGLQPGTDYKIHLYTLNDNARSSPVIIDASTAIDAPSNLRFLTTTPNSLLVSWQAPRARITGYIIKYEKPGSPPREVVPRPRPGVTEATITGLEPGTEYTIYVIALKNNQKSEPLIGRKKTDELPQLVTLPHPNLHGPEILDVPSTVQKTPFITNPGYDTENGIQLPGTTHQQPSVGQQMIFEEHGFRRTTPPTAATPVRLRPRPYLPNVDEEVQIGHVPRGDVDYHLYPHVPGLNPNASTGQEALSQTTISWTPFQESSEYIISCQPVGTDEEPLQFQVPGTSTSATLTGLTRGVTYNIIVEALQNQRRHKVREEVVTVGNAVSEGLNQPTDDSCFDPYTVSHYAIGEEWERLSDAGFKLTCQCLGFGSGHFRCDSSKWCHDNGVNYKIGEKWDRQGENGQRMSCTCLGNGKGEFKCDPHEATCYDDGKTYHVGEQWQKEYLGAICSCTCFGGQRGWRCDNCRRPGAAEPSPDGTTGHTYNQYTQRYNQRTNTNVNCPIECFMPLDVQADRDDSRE

## MI-D chain: myostatin inhibitor with the IGF-I D chain attached at the C-terminus for direct immobilization on ECM (VATQGQCTRWPWMCPPQGWGPLKPAKSA)
fibronectin; confocal laser scanning microscopy
  co-localization with fibronectin: confirmed
fibronectin; decellularized ECM from NIH3T3 fibroblasts, FXIIIa
  efficacy of immobilization on ECM: high efficacy
Myostatin [1]; ELISA, MI immobilized on ECM
  bioactivity of immobilized MI by capturing myostatin: confirmed
Myostatin [1]; immobilized on ECM
  capacity to bind and inhibit myostatin after immobilization on N-terminus of fibronectin: without impairment
Mouse myoblast cells
  differentiation of mouse myoblast cells in presence of myostatin: restoration

## PLKPAKSA (listed as Homo sapiens) [IGF-I D chain]
[2]; coupling to glutamine substrate derived from α-2 plasmin inhibitor
  time to reach >90% conversion: less than 10 minutes
[2]; within less than 10 minutes
  conversion (coupling to glutamine substrate): > 90%

## VATQGQCTRWPWMCPPQGWG (listed as Homo sapiens) [MI, in b165 the MI released from ECM by MMPs]
Myostatin [3]
  bioactivity of released MI in terms of myostatin inhibition: bioactive
